Results taken from US20090028788A1 (WASHINGTON UNIVERSITY IN ST LOUIS, published 2009).
[ ]: non-standard residue; d: D form. The star is where a group is joined. Cypate = CC1(C)C(/C=C/C=C/C=C/C=C2/N(CCC(=O)*)c3ccc4ccccc4c3C2(C)C)=[N+](CCC(=O)O)c2ccc3ccccc3c21

B1: Cypate-Gly-Arg-Gly-Asp-Ser-Pro-Lys-OH (peptide)
peptide: GRGDSPK
HELM: PEPTIDE1{[CC1(C)C(/C=C/C=C/C=C/C=C2/N(CCC(=O)[*:2])c3ccc4ccccc4c3C2(C)C)=[N+](CCC(=O)O)c2ccc3ccccc3c21].G.R.G.D.S.P.K}$$$$V2.0
SMILES: CC1(C)C(/C=C/C=C/C=C/C=C2/N(CCC(=O)NCC(=O)N[C@@H](CCCNC(=N)N)C(=O)NCC(=O)N[C@@H](CC(=O)O)C(=O)N[C@@H](CO)C(=O)N3CCC[C@H]3C(=O)N[C@@H](CCCCN)C(=O)O)c3ccc4ccccc4c3C2(C)C)=[N+](CCC(=O)O)c2ccc3ccccc3c21
notes: also called Cypate-GRGDSPK; Cypate-GRGDSPK-OH
B2: Cypate-Gly-Arg-Asp-Ser-Pro-Lys-OH (peptide)
peptide: GRDSPK
HELM: PEPTIDE1{[CC1(C)C(/C=C/C=C/C=C/C=C2/N(CCC(=O)[*:2])c3ccc4ccccc4c3C2(C)C)=[N+](CCC(=O)O)c2ccc3ccccc3c21].G.R.D.S.P.K}$$$$V2.0
SMILES: CC1(C)C(/C=C/C=C/C=C/C=C2/N(CCC(=O)NCC(=O)N[C@@H](CCCNC(=N)N)C(=O)N[C@@H](CC(=O)O)C(=O)N[C@@H](CO)C(=O)N3CCC[C@H]3C(=O)N[C@@H](CCCCN)C(=O)O)c3ccc4ccccc4c3C2(C)C)=[N+](CCC(=O)O)c2ccc3ccccc3c21
notes: also called Cypate-GRDSPK; Cypate-GRDSPK-OH
B3: Cyclo(Lys(Cypate)-Arg-Gly-Asp-DPhe-Val) (peptide)
peptide: cyclo(K(Cypate)RGD[dF]V)
SMILES: CC(C)[C@@H]1NC(=O)[C@@H](Cc2ccccc2)NC(=O)[C@H](CC(=O)O)NC(=O)CNC(=O)[C@H](CCCNC(=N)N)NC(=O)[C@H](CCCCNC(=O)CCN2/C(=C/C=C/C=C/C=C/C3=[N+](CCC(=O)O)c4ccc5ccccc5c4C3(C)C)C(C)(C)c3c2ccc2ccccc32)NC1=O
notes: also called Cyclo(K^(Cypate)RGDfV); cyclo-[K^(Cypate)RGDfV]
B4: Cypate-Lys-Arg-Gly-Asp-DPhe-Asp-DPhe-EAhx-NH2 (peptide)
peptide: KRGDXDXX
HELM: PEPTIDE1{[CC1(C)C(/C=C/C=C/C=C/C=C2/N(CCC(=O)[*:2])c3ccc4ccccc4c3C2(C)C)=[N+](CCC(=O)O)c2ccc3ccccc3c21].K.R.G.D.[dF].D.[dF].[O=C(CCCCCN[*:1])[*:2]].[am]}$$$$V2.0
SMILES: CC1(C)C(/C=C/C=C/C=C/C=C2/N(CCC(=O)N[C@@H](CCCCN)C(=O)N[C@@H](CCCNC(=N)N)C(=O)NCC(=O)N[C@@H](CC(=O)O)C(=O)N[C@H](Cc3ccccc3)C(=O)N[C@@H](CC(=O)O)C(=O)N[C@H](Cc3ccccc3)C(=O)NCCCCCC(N)=O)c3ccc4ccccc4c3C2(C)C)=[N+](CCC(=O)O)c2ccc3ccccc3c21
B5: Cypate-cyclo(CRGDLC)-NH2 (peptide)
peptide: CRGDLC
HELM: PEPTIDE1{[CC1(C)C(/C=C/C=C/C=C/C=C2/N(CCC(=O)[*:2])c3ccc4ccccc4c3C2(C)C)=[N+](CCC(=O)O)c2ccc3ccccc3c21].C.R.G.D.L.C.[am]}$PEPTIDE1,PEPTIDE1,2:R3-7:R3$$$V2.0
SMILES: CC(C)C[C@@H]1NC(=O)[C@H](CC(=O)O)NC(=O)CNC(=O)[C@H](CCCNC(=N)N)NC(=O)[C@@H](NC(=O)CCN2/C(=C/C=C/C=C/C=C/C3=[N+](CCC(=O)O)c4ccc5ccccc5c4C3(C)C)C(C)(C)c3c2ccc2ccccc32)CSSC[C@@H](C(N)=O)NC1=O
B6: Cypate-cyclo(CRGDGRC)-NH2 (peptide)
peptide: CRGDGRC
HELM: PEPTIDE1{[CC1(C)C(/C=C/C=C/C=C/C=C2/N(CCC(=O)[*:2])c3ccc4ccccc4c3C2(C)C)=[N+](CCC(=O)O)c2ccc3ccccc3c21].C.R.G.D.G.R.C.[am]}$PEPTIDE1,PEPTIDE1,2:R3-8:R3$$$V2.0
SMILES: CC1(C)C(/C=C/C=C/C=C/C=C2/N(CCC(=O)N[C@H]3CSSC[C@@H](C(N)=O)NC(=O)[C@H](CCCNC(=N)N)NC(=O)CNC(=O)[C@H](CC(=O)O)NC(=O)CNC(=O)[C@H](CCCNC(=N)N)NC3=O)c3ccc4ccccc4c3C2(C)C)=[N+](CCC(=O)O)c2ccc3ccccc3c21
B7: cyclo[RGDfVK] (peptide)
peptide: RGDXVK
HELM: PEPTIDE1{R.G.D.[dF].V.K}$PEPTIDE1,PEPTIDE1,1:R1-6:R2$$$V2.0
SMILES: CC(C)[C@@H]1NC(=O)[C@@H](Cc2ccccc2)NC(=O)[C@H](CC(=O)O)NC(=O)CNC(=O)[C@H](CCCNC(=N)N)NC(=O)[C@H](CCCCN)NC1=O

Molecular target: T1, purified human αvβ3 integrin protein (human, UniProt P06756 31-1048; P05106 27-788)
T1 construct: Bought heterodimer; also called ABI; purified αvβ3 integrin
Experiment: competition with 125I-echistatin on purified human αvβ3 integrin, filter plate

In order of falling IC50:
1. B3  79.5 µM
2. B2  7.02 µM
3. B1  0.328 µM

Molecular target: T1, purified human αvβ3 integrin protein
Experiment: as above
Remark: another data set of the same source

In order of rising IC50:
1. B4  0.328 µM
2. Cypate(Octreotate)1-(Arg-Gly-Asp-NH2)1 (peptide)  4.67 µM

Molecular target: T1, purified human αvβ3 integrin protein
Experiment: as above
Remark: another data set of the same source

In order of falling IC50:
1. B3  79.5 µM
2. B5  9.64 µM
3. B6  1.09 µM

Molecular target: T1, purified human αvβ3 integrin protein
Experiment: competition with 125I-echistatin on purified αvβ3 integrin, filtration plate (Example 3)

Compared with B1, B2 is higher in IC50: 10.7 µM for the first, greater than 100 µM for the second. The first is the more potent here.

First: B3
Second: B7
The IC50 of the first is 41-fold higher: 79.1 µM for the first, 1.93 µM for the second. The second is the more potent here.
